How the values were obtained:
[1] = molecular target: T1, tissue factor pathway inhibitor (TFPI) (UniProt P10646 29-304, limits assumed); assay: cell-based or functional assay
T1 sequence (looked up): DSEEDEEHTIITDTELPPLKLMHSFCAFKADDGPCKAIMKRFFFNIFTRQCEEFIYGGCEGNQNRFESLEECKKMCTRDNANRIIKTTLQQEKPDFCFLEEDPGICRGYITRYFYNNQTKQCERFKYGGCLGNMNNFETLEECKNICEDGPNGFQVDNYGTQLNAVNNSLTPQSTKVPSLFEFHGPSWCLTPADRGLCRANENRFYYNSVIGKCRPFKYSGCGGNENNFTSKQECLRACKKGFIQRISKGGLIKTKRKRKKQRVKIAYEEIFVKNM

[2] = molecular target: T2, factor V (fV) (UniProt P12259 29-2224); assay: SPR, Biacore 3000, CM-5 chip (Prep 1)
T2 sequence (P12259 29-2224 limits assumed): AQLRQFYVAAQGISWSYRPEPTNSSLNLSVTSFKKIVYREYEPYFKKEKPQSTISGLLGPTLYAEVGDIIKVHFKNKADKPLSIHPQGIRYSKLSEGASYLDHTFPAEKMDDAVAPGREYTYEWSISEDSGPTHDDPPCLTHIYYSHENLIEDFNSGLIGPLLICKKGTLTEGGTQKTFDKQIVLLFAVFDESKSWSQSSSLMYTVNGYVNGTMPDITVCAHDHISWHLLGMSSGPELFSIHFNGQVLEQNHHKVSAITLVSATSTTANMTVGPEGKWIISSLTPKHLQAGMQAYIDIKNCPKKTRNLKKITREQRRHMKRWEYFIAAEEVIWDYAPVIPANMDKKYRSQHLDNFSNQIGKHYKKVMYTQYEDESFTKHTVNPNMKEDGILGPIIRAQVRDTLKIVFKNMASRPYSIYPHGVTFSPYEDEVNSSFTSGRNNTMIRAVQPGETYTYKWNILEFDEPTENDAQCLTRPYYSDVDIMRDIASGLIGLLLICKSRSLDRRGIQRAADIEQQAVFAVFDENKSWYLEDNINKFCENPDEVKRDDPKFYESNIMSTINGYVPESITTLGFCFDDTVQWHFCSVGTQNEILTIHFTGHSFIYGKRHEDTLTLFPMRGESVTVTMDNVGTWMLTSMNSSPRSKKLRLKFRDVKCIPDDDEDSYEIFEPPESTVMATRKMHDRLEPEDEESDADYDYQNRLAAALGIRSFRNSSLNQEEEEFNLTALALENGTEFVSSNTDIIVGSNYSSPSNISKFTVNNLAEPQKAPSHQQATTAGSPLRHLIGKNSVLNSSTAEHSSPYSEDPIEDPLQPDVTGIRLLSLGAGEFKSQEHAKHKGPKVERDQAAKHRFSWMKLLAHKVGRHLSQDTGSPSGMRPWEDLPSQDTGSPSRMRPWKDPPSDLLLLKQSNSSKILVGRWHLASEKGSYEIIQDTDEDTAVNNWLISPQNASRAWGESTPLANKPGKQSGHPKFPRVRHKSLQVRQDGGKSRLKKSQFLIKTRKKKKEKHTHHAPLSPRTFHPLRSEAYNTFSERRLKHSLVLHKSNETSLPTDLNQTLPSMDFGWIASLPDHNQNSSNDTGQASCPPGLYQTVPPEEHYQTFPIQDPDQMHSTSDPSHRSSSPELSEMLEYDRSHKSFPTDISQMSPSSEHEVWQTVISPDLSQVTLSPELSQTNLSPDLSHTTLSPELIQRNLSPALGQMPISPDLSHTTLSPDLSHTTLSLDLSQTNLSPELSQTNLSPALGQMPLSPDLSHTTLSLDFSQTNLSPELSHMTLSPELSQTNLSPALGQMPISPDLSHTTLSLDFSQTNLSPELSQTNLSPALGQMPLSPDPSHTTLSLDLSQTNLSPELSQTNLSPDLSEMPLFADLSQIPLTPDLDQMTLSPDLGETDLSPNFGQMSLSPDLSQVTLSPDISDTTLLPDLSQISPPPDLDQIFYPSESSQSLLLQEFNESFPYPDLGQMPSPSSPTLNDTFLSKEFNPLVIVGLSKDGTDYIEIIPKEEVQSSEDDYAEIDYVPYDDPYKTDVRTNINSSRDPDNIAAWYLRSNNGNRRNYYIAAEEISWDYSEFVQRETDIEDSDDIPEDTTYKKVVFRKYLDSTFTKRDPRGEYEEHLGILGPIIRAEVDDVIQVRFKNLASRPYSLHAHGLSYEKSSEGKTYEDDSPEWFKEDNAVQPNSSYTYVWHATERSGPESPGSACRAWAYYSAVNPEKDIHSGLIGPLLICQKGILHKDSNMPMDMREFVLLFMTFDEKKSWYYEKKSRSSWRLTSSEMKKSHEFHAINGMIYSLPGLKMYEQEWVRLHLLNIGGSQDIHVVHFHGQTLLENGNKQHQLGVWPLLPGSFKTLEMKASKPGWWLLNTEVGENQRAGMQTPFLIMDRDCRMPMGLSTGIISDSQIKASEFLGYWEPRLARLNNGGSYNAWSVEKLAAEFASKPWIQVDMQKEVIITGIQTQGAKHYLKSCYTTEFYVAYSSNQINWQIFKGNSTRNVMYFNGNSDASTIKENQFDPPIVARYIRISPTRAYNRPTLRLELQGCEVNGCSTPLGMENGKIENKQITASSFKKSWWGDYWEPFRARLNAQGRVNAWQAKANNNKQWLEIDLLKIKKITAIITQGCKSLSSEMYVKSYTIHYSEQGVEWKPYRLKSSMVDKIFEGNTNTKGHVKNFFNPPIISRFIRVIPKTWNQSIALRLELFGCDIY
Protocol: (§1) A few major plasma proteins, including tissue factor pathway inhibitor (TFPI), antithrombin III (ATIII), α-2-macroglobulin, α-1-antitrypsin, factor VII (fVII), factor X (fX), prothrombin, and factor V (fV), were tested for their binding affinity to a wild-type factor Xa (fXa) and two individual preparations (Prep 1 and Prep 2) of the fXa derivative (SEQ ID NO: 3). The binding experiment was conducted with a Biacore® 3000 with the fXa derivative immobilized on a CM-5 sensor chip according to manufacturer's instruction.

[3] = molecular target: T3, α-2-macroglobulin (UniProt P01023 24-1474); assay: SPR, Biacore 3000, CM-5 chip (Prep 1)
T3 sequence (looked up): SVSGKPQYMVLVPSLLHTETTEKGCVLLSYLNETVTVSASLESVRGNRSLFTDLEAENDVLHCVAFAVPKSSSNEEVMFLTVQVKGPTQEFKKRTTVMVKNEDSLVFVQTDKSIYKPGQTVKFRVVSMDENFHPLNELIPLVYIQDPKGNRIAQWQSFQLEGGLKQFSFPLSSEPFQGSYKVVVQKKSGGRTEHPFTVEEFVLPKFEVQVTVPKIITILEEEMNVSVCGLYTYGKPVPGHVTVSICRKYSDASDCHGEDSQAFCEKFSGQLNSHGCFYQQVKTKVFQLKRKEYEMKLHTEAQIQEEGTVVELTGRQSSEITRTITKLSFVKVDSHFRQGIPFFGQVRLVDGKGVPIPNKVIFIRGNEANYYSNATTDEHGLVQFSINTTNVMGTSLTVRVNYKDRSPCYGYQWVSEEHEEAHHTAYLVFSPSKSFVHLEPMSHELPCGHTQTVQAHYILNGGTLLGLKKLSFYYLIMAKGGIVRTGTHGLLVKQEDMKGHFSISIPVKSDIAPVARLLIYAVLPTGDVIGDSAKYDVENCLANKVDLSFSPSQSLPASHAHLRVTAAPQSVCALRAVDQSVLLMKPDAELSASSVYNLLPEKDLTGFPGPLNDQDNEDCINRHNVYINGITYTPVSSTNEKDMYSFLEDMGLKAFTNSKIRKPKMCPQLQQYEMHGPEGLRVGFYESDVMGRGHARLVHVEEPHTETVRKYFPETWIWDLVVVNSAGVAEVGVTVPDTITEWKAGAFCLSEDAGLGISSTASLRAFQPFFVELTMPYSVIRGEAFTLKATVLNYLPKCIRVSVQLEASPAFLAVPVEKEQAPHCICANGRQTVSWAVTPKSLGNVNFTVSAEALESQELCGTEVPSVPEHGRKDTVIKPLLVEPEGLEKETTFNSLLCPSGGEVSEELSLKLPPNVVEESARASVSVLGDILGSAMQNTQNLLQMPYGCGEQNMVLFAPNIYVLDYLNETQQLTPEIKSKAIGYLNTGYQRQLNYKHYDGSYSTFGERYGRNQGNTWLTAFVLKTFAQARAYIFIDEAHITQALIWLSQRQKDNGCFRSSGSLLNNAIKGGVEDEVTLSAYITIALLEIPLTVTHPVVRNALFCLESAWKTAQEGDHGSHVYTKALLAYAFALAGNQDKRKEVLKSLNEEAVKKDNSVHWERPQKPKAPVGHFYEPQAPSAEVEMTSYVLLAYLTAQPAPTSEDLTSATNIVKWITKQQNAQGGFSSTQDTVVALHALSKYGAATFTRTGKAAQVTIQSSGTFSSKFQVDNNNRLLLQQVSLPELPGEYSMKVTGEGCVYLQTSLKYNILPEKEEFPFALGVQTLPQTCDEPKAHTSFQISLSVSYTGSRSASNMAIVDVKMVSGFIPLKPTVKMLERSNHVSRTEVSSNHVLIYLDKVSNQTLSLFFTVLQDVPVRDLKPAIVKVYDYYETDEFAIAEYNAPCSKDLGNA
Protocol: as §1

[4] = molecular target: T4, α-1-antitrypsin (UniProt P01009 25-418); assay: SPR, Biacore 3000, CM-5 chip (Prep 1)
T4 sequence (P01009 25-418 limits assumed): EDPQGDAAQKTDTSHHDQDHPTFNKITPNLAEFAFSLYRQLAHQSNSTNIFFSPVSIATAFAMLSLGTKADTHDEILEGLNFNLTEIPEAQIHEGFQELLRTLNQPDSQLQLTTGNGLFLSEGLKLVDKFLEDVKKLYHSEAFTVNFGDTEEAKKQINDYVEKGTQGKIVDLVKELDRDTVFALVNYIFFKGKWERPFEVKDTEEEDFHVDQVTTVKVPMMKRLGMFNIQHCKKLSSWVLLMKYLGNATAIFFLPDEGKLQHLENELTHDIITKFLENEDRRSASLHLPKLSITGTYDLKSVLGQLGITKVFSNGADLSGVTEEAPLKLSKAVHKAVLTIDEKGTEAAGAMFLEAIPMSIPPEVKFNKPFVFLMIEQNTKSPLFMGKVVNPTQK
Protocol: as §1

[5] = molecular target: T5, factor X (fX) (UniProt P00742 41-488); assay: SPR, Biacore 3000, CM-5 chip (Prep 1)
Protocol: as §1

[6] = molecular target: T6, prothrombin (UniProt P00734 44-622); assay: SPR, Biacore 3000, CM-5 chip (Prep 1)
Protocol: as §1

[7] = molecular target: T7, factor VII (fVII) (UniProt P08709 61-466); assay: SPR, Biacore 3000, fXa derivative immobilized on CM-5 chip
T7 sequence (looked up): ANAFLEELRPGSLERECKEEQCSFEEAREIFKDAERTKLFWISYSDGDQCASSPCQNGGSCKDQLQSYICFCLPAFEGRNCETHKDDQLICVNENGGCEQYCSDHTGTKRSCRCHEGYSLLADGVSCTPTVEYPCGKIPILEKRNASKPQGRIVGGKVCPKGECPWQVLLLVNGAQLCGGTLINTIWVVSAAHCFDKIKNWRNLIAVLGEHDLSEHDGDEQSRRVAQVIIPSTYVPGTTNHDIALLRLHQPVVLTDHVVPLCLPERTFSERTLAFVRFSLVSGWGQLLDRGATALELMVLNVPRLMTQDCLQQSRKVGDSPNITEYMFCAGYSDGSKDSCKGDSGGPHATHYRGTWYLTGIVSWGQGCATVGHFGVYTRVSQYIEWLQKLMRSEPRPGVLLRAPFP
Protocol: as §1

[8] = molecular target: T1, tissue factor pathway inhibitor (TFPI); assay: Kd of fXa derivative-TFPI over Ki of TFPI-fXa, fXa chromogenic assay (FIG. 1C)
[9] = molecular target: T1, tissue factor pathway inhibitor (TFPI); assay: Kd of fXa derivative-TFPI over Ki of TFPI-fXa, fXa chromogenic assay (FIG. 1D)
Protocol: The binding kinetics were determined using three different concentrations of the fXa derivative (0, 1 nM, and 5 nM) and escalating doses of TFPI, up to about 12 nM. fXa chromogenic activity was measured following a 2 hour incubation of fXa (1 nM). Residual fXa activity was measured by cleavage of the peptidyl substrate Spectrozyme-fXa (100 μM).

[10] = molecular target: T1, tissue factor pathway inhibitor (TFPI); assay: competition in the fXa chromogenic activity assay: SEQ ID NO: 3 competes with fXa (0.5 nM) for TFPI (1.0 nM)
[11] = molecular target: T1, tissue factor pathway inhibitor (TFPI); assay: competition in the fXa chromogenic activity assay: SEQ ID NO: 3 competes with fXa (1.0 nM) for TFPI (1.0 nM)
[12] = molecular target: T2, factor V (fV); assay: SPR, Biacore 3000, CM-5 chip
Protocol: as §1

[13] = molecular target: antithrombin III (ATIII) (UniProt P01008 33-464); assay: SPR, Biacore 3000, CM-5 chip
Sequence of antithrombin III (ATIII) (P01008 33-464 limits assumed): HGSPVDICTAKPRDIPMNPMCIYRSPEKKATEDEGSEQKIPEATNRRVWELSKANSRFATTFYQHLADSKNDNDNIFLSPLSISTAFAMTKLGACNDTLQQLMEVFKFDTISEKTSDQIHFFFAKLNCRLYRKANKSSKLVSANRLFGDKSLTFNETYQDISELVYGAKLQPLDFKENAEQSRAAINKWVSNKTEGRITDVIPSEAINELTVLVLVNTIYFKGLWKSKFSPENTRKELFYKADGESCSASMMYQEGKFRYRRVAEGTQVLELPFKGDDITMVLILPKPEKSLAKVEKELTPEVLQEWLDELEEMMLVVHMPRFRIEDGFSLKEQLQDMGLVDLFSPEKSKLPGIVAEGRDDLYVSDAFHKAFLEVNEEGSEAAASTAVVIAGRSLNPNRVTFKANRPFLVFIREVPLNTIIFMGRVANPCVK
Protocol: as §1

[14] = molecular target: T3, α-2-macroglobulin; assay: SPR, Biacore 3000, CM-5 chip
Protocol: as §1

[15] = molecular target: T4, α-1-antitrypsin; assay: SPR, Biacore 3000, CM-5 chip
Protocol: as §1

[16] = molecular target: T7, factor VII (fVII); assay: SPR, Biacore 3000, CM-5 chip
Protocol: as §1

[17] = molecular target: T5, factor X (fX); assay: SPR, Biacore 3000, CM-5 chip
Protocol: as §1

[18] = molecular target: T6, prothrombin; assay: SPR, Biacore 3000, CM-5 chip
Protocol: as §1

B1: fXa derivative (SEQ ID NO: 3) (other)
light: ANSFLFWNKYKDGDQCETSPCQNQGKCKDGLGEYTCTCLEGFEGKNCELFTRKLCSLDNGDCDQFCHEEQNSVVCSCARGYTLADNGKACIPTGPYPCGKQTLER
heavy: IVGGQECKDGECPWQALLINEENEGFCGGTILSEFYILTAAHCLYQAKRFKVRVGDRNTEQEEGGEAVHEVEVVIKHNRFTKETYDFDIAVLRLKTPITFRMNVAPACLPERDWAESTLMTQKTGIVSGFGRTHEKGRQSTRLKMLEVPYVDRNSCKLSSSFIITQNMFCAGYDTKQEDACQGDAGGPHVTRFKDTYFVTGIVSWGEGCARKGKYGIYTKVTAFLKWIDRSMKTRGLPKAKSHAPEVITSSPLK
notes: Prep 1 and Prep 2 are two preparations of the same molecule; also called fXa derivative Prep 1; fXa derivative Prep 2
In the case of B1, the “EC50 (read off the curve): fXa formed after 15 min by fVIIa/TF with 2.4 nM TFPI” value [1] is reported as roughly 5 nM, the binding result [2] is reported as “no binding” and the binding result [3] is reported as “no binding”. B1: no binding [4]; no binding [5]; no binding [6]. For the same binder, the Kd [7] was 2780 nM, the “Ratio (Kd/Ki)” value [8] was 2.69 and the “Ratio (Kd/Ki)” value [9] was 4.97. For the same binder, the “EC50 (read off the curve)” value [10] was roughly 2 nM and the “EC50 (read off the curve)” value [11] was roughly 2 nM.

B2: wild-type factor Xa (fXa) (enzyme)
light: ANSFLEEMKKGHLERECMEETCSYEEAREVFEDSDKTNEFWNKYKDGDQCETSPCQNQGKCKDGLGEYTCTCLEGFEGKNCELFTRKLCSLDNGDCDQFCHEEQNSVVCSCARGYTLADNGKACIPTGPYPCGKQTLER
heavy: IVGGQECKDGECPWQALLINEENEGFCGGTILSEFYILTAAHCLYQAKRFKVRVGDRNTEQEEGGEAVHEVEVVIKHNRFTKETYDFDIAVLRLKTPITFRMNVAPACLPERDWAESTLMTQKTGIVSGFGRTHEKGRQSTRLKMLEVPYVDRNSCKLSSSFIITQNMFCAGYDTKQEDACQGDSGGPHVTRFKDTYFVTGIVSWGEGCARKGKYGIYTKVTAFLKWIDRSMKTRGLPKAKSHAPEVITSSPLK
modifications: 11 gamma-carboxyglutamic acid residues (Gla) in the Gla domain, residues 1-45 of SEQ ID NO. 1
With B2 the binding result [12] was “no binding”, the Kd [13] was 1060 to 13200 nM and the binding result [14] was “no binding”. The binding result [15] was “no binding”, the Kd [16] was 2970 nM and the binding result [17] was “no binding”. B2: no binding [18].
